Consider 1 molecule from PMC10825690 (2023).

Broadly, the Kd is the free concentration of one partner at which half of the binding sites on the other are occupied at equilibrium, for simple one-to-one binding.

In the assay the target is acetylated bovine serum albumin (AcBSA) (Bos taurus, UniProt P02769). The experiment in a line: microscale thermophoresis.
Sequence of acetylated bovine serum albumin (AcBSA) (P02769 25-607): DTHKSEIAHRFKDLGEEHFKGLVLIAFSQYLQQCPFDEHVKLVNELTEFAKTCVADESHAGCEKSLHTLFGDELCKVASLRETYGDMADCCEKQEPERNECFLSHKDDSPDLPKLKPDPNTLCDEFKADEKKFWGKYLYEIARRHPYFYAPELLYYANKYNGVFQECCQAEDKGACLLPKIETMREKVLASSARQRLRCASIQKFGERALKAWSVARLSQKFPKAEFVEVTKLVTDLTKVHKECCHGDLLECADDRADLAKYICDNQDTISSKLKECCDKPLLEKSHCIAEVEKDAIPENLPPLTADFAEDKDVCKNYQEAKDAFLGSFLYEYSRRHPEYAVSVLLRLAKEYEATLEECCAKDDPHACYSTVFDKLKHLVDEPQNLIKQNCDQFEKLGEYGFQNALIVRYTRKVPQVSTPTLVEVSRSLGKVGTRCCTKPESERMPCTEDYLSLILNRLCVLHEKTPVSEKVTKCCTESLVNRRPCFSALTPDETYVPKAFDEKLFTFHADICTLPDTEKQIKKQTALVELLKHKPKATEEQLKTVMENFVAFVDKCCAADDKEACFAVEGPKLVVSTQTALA

B1: FIBCD1 236-461 (protein)
chain: ATGSRPRDCLDVLLSGQQDDGVYSVFPTHYPAGFQVYCDMRTDGGGWTVFQRREDGSVNFFRGWDAYRDGFGRLTGEHWLGLKRIHALTTQAAYELHVDLEDFENGTAYARYGSFGVGLFSVDPEEDGYPLTVADYSGTAGDSLLKHSGMRFTTKDRDSDHSENNCAAFYRGAWWYRNCHTSNLNGQYLRGAHASYADGVEWSSWTGWQYSLKFSEMKIRPVREDR
modifications: acetylated BSA, RED-NHS labeled FIBCD1, calcium
B1: the affinity, expressed as Kd, was 53 nM.
